The values below come from US20120141537A1.

Assay in all cases: cell-based or functional assay
For assay [1], the target named is H-2K^b wild type complexed with Q7 peptide SIINFEQL (SEQ ID NO:2) (mouse) (UniProt P01901).
Assay [2] has as its target H-2K^b wild type complexed with SIINFEKL (SEQ ID NO:1) (mouse; chicken) (UniProt P01901).
In assay [3] the target is K^bm3 complexed with Q7 peptide (SEQ ID NO:2) (mouse) (UniProt P01901).

Take OT-1 T cell receptor (TCR): the figures for the Day 14 Diabetes in B6-RIP-OVA mice given naive OT-1 spleen cells and peptide-pulsed RMAS cells in assay [1], in assay [2] and in assay [3] were 0 of 4 mice, 0 of 2 mice and 0 of 4 mice, respectively. Moreover, the figures for the Day 21 Diabetes after day 15 challenge with TMEV-SIINFEKL in assay [1], in assay [2] and in assay [3] were 0 of 4 mice, 2 of 2 mice and 3 of 4 mice, respectively. In addition, in assay [3], the diabetes (>300 mg/dL blood glucose) after TMEV-L/OVA challenge on day 15 (FIG. 4) was 65 % of mice.
